According to US20230212549A1 (3B PHARMACEUTICALS, published 2023):
Several values for one entry are separate records, joined by “and”; a condition that tells them apart may be missing. Identical values can stand only once. Numbered stars: 1 amine (or outer) side, 2 acyl side, 3 side chain; on linkers, the order of the positions; unused ones are H or OH. Bridge positions count the residues as written; N and C are the ends. Square brackets hold non-standard residues; d marks the D form. * marks the point of attachment. tMeBn(DOTA-PP) = 1,3,5-trimethylbenzylidene, two thioethers to Cys, third CH2 bound to one N of piperazine whose other N bears DOTA, O=C(O)CN1CCN(CC(=O)O)CCN(CC(=O)N2CCN(Cc3cc(C[*:1])cc(C[*:2])c3)CC2)CCN(CC(=O)O)CC1; Ttds = 1,13-diamino-4,7,10-trioxatridecan-succinamic acid, O=C(CCC(=O)[*:2])NCCCOCCOCCOCCCN[*:1]; N4Ac = 6-Carboxy-1,4,8,11-tetraazaundecane, an N4-chelator, NCCNCC(CNCCN)C(=O)*; DOTA = O=C(O)CN1CCN(CC(=O)O)CCN(CC(=O)*)CCN(CC(=O)O)CC1; γGlu = O=C(O)[C@H](CCC(=O)[*:2])N[*:1]; 1Nal = N[C@@H](Cc1cccc2ccccc12)C(=O)O; mXylylene = c1cc(C[*:1])cc(C[*:2])c1; Pentanesulfonyl = CCCCCS(=O)(=O)*; Nle = CCCC[C@H](N)C(=O)O; Hexanoyl = CCCCCC(=O)*; Nleu = CC(C)CNCC(=O)O; Nlys = NCCCCNCC(=O)O; Sar = CNCC(=O)O

Tests used:
[1] = molecular target: Recombinant human FAP (R&D systems, #3715-SE) (human, UniProt Q12884 26-760); assay: cell-based or functional assay
[2] = molecular target: T1, fibroblast activation protein (FAP) on FAP-expressing human WI-38 fibroblasts (human, UniProt Q12884 1-760); assay: competitive FACS, WI-38 cells, vs Cy5 tracer m3; B = pIC50 7.1-8.0
T1 construct: also called human FAP

[3] = molecular target: T2, Recombinant human FAP (R&D systems, #3715-SE) (human, UniProt Q12884 26-760); assay: cell-based or functional assay; remark: listed apart in the source
[4] = molecular target: T2, Recombinant human FAP (R&D systems, …); assay: SPR (Biacore T200), FAP captured on anti-FAP antibody, single cycle kinetics

Binder | pIC50 Category (Activity) [3] [pIC50] | pKD Category [4] [pKD] | also measured
Hexanoyl-CPPTE[1Nal]C-NH2 (linker 1-7 via mXylylene; SMILES CCCCCC(=O)N[C@H]1CSCc2cccc(c2)CSC[C@@H](C(N)=O)NC(=O)[C@H](Cc2cccc3ccccc23)NC(=O)[C@H](CCC(=O)O)NC(=O)[C@H]([C@@H](C)O)NC(=O)[C@@H]2CCCN2C(=O)[C@@H]2CCCN2C1=O, also called 3BP-3361) [Hex-[Cys(3MeBn)-Pro-Pro-Thr-Glu-1Ni-Cys]-NH2] | – | – | pIC50 Category (Activity) [1]: 7.1 pIC50 and 8 pIC50; pIC50 Category (FACS) [2]: 7.1 pIC50 and 8 pIC50
{DOTA}-[Ttds][Nle]CPPTEFCD-NH2 (linker 3-9 via mXylylene; SMILES CCCC[C@H](NC(=O)CCC(=O)NCCCOCCOCCOCCCNC(=O)CN1CCN(CC(=O)O)CCN(CC(=O)O)CCN(CC(=O)O)CC1)C(=O)N[C@H]1CSCc2cccc(c2)CSC[C@@H](C(=O)N[C@@H](CC(=O)O)C(N)=O)NC(=O)[C@H](Cc2ccccc2)NC(=O)[C@H](CCC(=O)O)NC(=O)[C@H]([C@@H](C)O)NC(=O)[C@@H]2CCCN2C(=O)[C@@H]2CCCN2C1=O, also called 3BP-3320) [DOTA-Ttds-Nle-[Cys(3MeBn)-Pro-Pro-Thr-Glu-Phe-Cys]-Asp-NH2] | – | – | pIC50 Category (Activity) [1]: > 8 pIC50; pIC50 Category (FACS) [2]: 7.1 pIC50 and 8 pIC50
Hexanoyl-C[Sar]PTQFC-OH (linker 1-7 via tMeBn(DOTA-AET), also called 3BP-3678) [Hex-[Cys(tMeBn(DOTA-AET))-Nmg-Pro-Thr-Gln-Phe-Cys]-OH] | – | > 8 | –
Pentanesulfonyl-CPPTQFCD-NH2 (linker 1-7 via mXylylene; SMILES CCCCCS(=O)(=O)N[C@H]1CSCc2cccc(c2)CSC[C@@H](C(=O)N[C@@H](CC(=O)O)C(N)=O)NC(=O)[C@H](Cc2ccccc2)NC(=O)[C@H](CCC(N)=O)NC(=O)[C@H]([C@@H](C)O)NC(=O)[C@@H]2CCCN2C(=O)[C@@H]2CCCN2C1=O, also called 3BP-3514) [Pentyl-SO2-[Cys(3MeBn)-Pro-Pro-Thr-Gln-Phe-Cys]-Asp-NH2] | – | > 8 | –
Hexanoyl-C[Nlys]PTQFC-NH2 (linker 1-7 via mXylylene; SMILES CCCCCC(=O)N[C@H]1CSCc2cccc(c2)CSC[C@@H](C(N)=O)NC(=O)[C@H](Cc2ccccc2)NC(=O)[C@H](CCC(N)=O)NC(=O)[C@H]([C@@H](C)O)NC(=O)[C@@H]2CCCN2C(=O)CN(CCCCN)C1=O) [Hex-[Cys(3MeBn)-Nlys-Pro-Thr-Gln-Phe-Cys]-NH2] | ≤ 6 | – | –
Hexanoyl-C[Nleu]PTQFC-NH2 (linker 1-7 via mXylylene; SMILES CCCCCC(=O)N[C@H]1CSCc2cccc(c2)CSC[C@@H](C(N)=O)NC(=O)[C@H](Cc2ccccc2)NC(=O)[C@H](CCC(N)=O)NC(=O)[C@H]([C@@H](C)O)NC(=O)[C@@H]2CCCN2C(=O)CN(CC(C)C)C1=O) [Hex-[Cys(3MeBn)-Nleu-Pro-Thr-Gln-Phe-Cys]-NH2] | ≤ 6 | – | –
Hexanoyl-CPPTQFCD-OH (linker 1-7 via tMeBn(DOTA-AET), also called 3BP-3665) [Hex-[Cys(tMeBn(DOTA-AET))-Pro-Pro-Thr-Gln-Phe-Cys]-Asp-OH] | – | > 8 | –
CPPTQFCD (N-term Hex; Cys1/Cys7 thioether-cyclised via tMeBn(DOTA-AET); D-Asp at 8; C-term amide, also called 3BP-3681) [Hex-[Cys(tMeBn(DOTA-AET))-Pro-Pro-Thr-Gln-Phe-Cys]-asp-NH2] | – | > 8 | –

Continued, in another order:

pIC50 Category (Activity) [3] [pIC50] | pKD Category [4] [pKD] | Binder | also measured
≤ 6 | – | N4Ac-[γGlu][Nle]CPPTEFC-OH (linker 3-9 via mXylylene; SMILES CCCC[C@H](NC(=O)CC[C@H](NC(=O)C(CNCCN)CNCCN)C(=O)O)C(=O)N[C@H]1CSCc2cccc(c2)CSC[C@@H](C(=O)O)NC(=O)[C@H](Cc2ccccc2)NC(=O)[C@H](CCC(=O)O)NC(=O)[C@H]([C@@H](C)O)NC(=O)[C@@H]2CCCN2C(=O)[C@@H]2CCCN2C1=O) [N4Ac-gGlu-Nle-[Cys-(3MeBn)-Pro-Pro-Thr-Glu-Phe-Cys]-OH] | –
≤ 6 | – | Hexanoyl-CPTPFQCD-NH2 (linker 1-7 via tMeBn(DOTA-PP); SMILES CCCCCC(=O)N[C@H]1CSCc2cc(cc(CN3CCN(C(=O)CN4CCN(CC(=O)O)CCN(CC(=O)O)CCN(CC(=O)O)CC4)CC3)c2)CSC[C@@H](C(=O)N[C@@H](CC(=O)O)C(N)=O)NC(=O)[C@H](CCC(N)=O)NC(=O)[C@H](Cc2ccccc2)NC(=O)[C@@H]2CCCN2C(=O)[C@H]([C@@H](C)O)NC(=O)[C@@H]2CCCN2C1=O) [Hex-[Cys(tMeBn(DOTA-PP))-Pro-Thr-Pro-Phe-Gln-Cys]-Asp-NH2] | –
– | > 8 | Hexanoyl-CPPTQFCD-NH2 (linker 1-7 via tMeBn(GaDOTA-PP); also: Ga complex (GaDOTA), also called 3BP-3592) [Hex-[Cys(tMeBn(GaDOTA-PP))-Pro-Pro-Thr-Gln-Phe-Cys]-Asp-NH2] | –
– | > 8 | CPPTQFX (not fully specified; N-term Hex; X7 = AET; Cys1/AET7 thioether-cyclised via tMeBn(InDOTA-AET), also called 3BP-3713) [Hex-[Cys(tMeBn(InDOTA-AET))-Pro-Pro-Thr-Gln-Phe-AET]] | –
